According to publication PMC9117268, “HDLBP binds ER-targeted mRNAs by multivalent interactions to promote protein synthesis of transmembrane and secreted proteins”:

What was measured:
[1] = biological target: T1, HDLBP full-length (FL), Vigilin (Homo sapiens, UniProt Q00341 1-1268); experiment: fluorescence anisotropy; 20 mM Tris pH 7.5, 60 mM KCl, 1 mM EDTA, 10% glycerol, 1 ng/ul tRNA, 1 ng/ul heparin, 0.4 U/ul RNasin, 200 ng/ul BSA; 10 nM RNA probe; 20 min on ice; details: protein: recombinant; purification section says GST removed by TEV; label: 5' fluorescein
T1 sequence (Q00341 whole entry): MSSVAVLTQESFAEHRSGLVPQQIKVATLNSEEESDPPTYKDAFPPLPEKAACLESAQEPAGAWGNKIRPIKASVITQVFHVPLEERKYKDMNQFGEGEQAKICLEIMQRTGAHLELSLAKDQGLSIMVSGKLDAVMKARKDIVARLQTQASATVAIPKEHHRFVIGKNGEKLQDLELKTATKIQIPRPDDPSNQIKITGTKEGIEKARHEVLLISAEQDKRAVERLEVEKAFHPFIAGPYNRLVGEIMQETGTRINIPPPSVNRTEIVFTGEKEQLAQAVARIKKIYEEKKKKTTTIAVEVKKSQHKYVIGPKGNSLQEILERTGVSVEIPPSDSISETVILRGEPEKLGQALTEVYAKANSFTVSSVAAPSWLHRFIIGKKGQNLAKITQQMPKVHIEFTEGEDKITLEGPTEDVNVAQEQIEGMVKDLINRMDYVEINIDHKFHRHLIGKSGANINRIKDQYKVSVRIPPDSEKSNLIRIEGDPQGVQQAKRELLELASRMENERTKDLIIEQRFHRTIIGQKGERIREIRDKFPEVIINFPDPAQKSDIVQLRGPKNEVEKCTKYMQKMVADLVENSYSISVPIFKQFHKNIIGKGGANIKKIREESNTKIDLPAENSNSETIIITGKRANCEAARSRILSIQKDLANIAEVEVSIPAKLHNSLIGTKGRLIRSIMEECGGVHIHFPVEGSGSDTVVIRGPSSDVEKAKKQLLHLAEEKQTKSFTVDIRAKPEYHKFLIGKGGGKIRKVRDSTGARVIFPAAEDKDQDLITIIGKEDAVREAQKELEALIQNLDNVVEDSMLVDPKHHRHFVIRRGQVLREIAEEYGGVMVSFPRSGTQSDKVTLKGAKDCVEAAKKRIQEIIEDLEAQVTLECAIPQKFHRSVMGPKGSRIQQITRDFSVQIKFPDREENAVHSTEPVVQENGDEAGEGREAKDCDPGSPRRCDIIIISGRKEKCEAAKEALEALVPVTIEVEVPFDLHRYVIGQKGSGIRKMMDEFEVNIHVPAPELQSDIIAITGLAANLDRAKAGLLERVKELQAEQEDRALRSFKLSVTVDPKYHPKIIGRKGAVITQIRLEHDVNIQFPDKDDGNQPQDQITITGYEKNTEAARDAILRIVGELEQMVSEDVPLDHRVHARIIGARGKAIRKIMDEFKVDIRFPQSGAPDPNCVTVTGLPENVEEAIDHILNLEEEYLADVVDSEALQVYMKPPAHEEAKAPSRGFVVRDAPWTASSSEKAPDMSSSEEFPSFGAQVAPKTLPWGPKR

[2] = biological target: T1, HDLBP full-length (FL), Vigilin; experiment: as above; details: protein: recombinant; purification section says GST removed by TEV; label: 5' fluorescein; remark: listed apart in the source

Binder	binding signal [1]	binding result [2]
CAACAACAACAACAACAACAACAACAACAACAA (ssRNA) [CAA_oligomer]	~10 fold lower affinity than CCU/CUU oligomers	–
CACAGCUCUCCUAUUGAAACUUGCCCAGAUGUU (ssRNA) [TFRC_2]	–	binds
AUUCCCUUCCUUCAAUCACACUCAGUUUCCACC (ssRNA) [TFRC_1]	–	binds
